The results in this text go back to patent US20190310251A1.

One assay deals with CD20 (UniProt P11836). The assay is described as follows: cell-based or functional assay.
In assay [1] the target is membrane-bound non-cleavable TNFα (human) (UniProt P01375). The assay is described as follows: cell-based or functional assay.
Chain of UniProt P01375 (P01375 whole entry A76L/V77L): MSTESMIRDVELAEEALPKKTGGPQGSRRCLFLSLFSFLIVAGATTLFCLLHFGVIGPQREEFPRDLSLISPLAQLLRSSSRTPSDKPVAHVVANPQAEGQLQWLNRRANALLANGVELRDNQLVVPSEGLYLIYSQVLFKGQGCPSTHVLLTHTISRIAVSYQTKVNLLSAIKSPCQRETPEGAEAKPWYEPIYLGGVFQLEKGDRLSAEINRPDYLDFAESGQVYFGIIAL

Chain of UniProt P11836 (P11836 whole entry): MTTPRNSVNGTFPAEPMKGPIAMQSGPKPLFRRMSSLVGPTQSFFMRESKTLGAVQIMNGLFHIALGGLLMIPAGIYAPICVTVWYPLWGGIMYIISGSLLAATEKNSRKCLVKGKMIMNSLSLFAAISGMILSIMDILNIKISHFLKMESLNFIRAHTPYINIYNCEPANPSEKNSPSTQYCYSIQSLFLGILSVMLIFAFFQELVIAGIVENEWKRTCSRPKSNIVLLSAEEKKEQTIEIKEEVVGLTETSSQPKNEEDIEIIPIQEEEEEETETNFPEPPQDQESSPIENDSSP

In the assay with CD20, rituximab (antibody) gave an EC50 of the ADCC reporter gene assay (NFAT effector cells & wild type Raji cells, no human serum) of 1.2 µg/mL and an EC50 of the ADCC reporter gene assay (iLite effector cells & CD20++ target cells, no human serum) of 0.002 µg/mL.
For etanercept (Fc fusion), in assay [1], the ADCC Reporter Gene Assay, Serum Sample/Control; Hum. Serum + Etanercept was determined as 2.77; the ADCC Reporter Gene Assay, Serum Sample/Control; No Hum. Serum + Etanercept was found to be 2.66; the ADCC Reporter Gene Assay, Target Positive Cells (RLU); Hum. Serum + Etanercept stood at 23700 RLU; the ADCC Reporter Gene Assay, Target Positive Cells (RLU); No Hum. Serum + Etanercept amounted to 22800 RLU. In assay [1], the ADCC Reporter Gene Assay, Target+/Target-; Hum. Serum + Etanercept is 13.1 and the ADCC Reporter Gene Assay, Target+/Target-; No Hum. Serum + Etanercept was 14.1.
For adalimumab (antibody), in assay [1], the ADCC Reporter Gene Assay, Serum Sample/Control; Hum. Serum + adalimumab came out at 2.39; the ADCC Reporter Gene Assay, Serum Sample/Control; No Hum. Serum + adalimumab is 2.65; the ADCC Reporter Gene Assay, Target Positive Cells (RLU); Hum. Serum + adalimumab was determined as 27000 RLU; the ADCC Reporter Gene Assay, Target Positive Cells (RLU); No Hum. Serum + adalimumab came out at 30000 RLU. Further, in assay [1], the ADCC Reporter Gene Assay, Target+/Target-; Hum. Serum + adalimumab stood at 12.3 and the ADCC Reporter Gene Assay, Target+/Target-; No Hum. Serum + adalimumab was determined as 17.6.
